Source: US20090105152A1
Square brackets hold non-standard residues; d marks the D form. * marks the point of attachment. Phe(4-Cl) = N[C@@H](Cc1ccc(Cl)cc1)C(=O)O; Phe(3-F) = N[C@@H](Cc1cccc(F)c1)C(=O)O; Phe(2-F) = N[C@@H](Cc1ccccc1F)C(=O)O; Arg(Me) = CNC(=N)NCCC[C@H](N)C(=O)O; Decanoyl = CCCCCCCCCC(=O)*; azaGly = NNC(=O)O

The binders below were run against human OT7T175 (metastin receptor) (human) (UniProt Q969F8) (assay: cell-based or functional assay).
Sequence of human OT7T175 (metastin receptor) (human) (Q969F8 whole entry L364H): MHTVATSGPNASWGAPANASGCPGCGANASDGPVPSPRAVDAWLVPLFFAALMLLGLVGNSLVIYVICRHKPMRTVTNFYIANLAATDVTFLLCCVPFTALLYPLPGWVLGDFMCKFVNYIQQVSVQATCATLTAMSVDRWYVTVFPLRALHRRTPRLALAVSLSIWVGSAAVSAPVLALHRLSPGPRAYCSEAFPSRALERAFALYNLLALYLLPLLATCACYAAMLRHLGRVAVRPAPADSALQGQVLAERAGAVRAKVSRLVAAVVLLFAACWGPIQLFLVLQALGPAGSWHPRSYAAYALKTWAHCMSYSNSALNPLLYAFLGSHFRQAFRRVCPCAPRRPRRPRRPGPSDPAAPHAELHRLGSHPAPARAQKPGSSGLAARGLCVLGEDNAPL

Row | intracellular Ca ion level-increasing activity [specific activity to Metastin (1-54)] (relative to Metastin (1-54)) | Binder
1 | 3.1 | Ac-[dY]KNT[Phe(2-F)][azaGly]L[Arg(Me)]W-NH2 (SMILES CNC(=N)NCCC[C@H](NC(=O)[C@H](CC(C)C)NC(=O)NNC(=O)[C@H](Cc1ccccc1F)NC(=O)[C@@H](NC(=O)[C@H](CC(N)=O)NC(=O)[C@H](CCCCN)NC(=O)[C@@H](Cc1ccc(O)cc1)NC(C)=O)[C@@H](C)O)C(=O)N[C@@H](Cc1c[nH]c2ccccc12)C(N)=O) [des(1)-Ac-[D-Tyr2,Lys3,Thr5,Phe(2F)6,AzaGly7,Arg(Me)9,Trp10]MS10]
2 | 0.5 | Ac-[dY][dW]NT[Phe(2-F)][azaGly]L[Arg(Me)]W-NH2 (SMILES CNC(=N)NCCC[C@H](NC(=O)[C@H](CC(C)C)NC(=O)NNC(=O)[C@H](Cc1ccccc1F)NC(=O)[C@@H](NC(=O)[C@H](CC(N)=O)NC(=O)[C@@H](Cc1c[nH]c2ccccc12)NC(=O)[C@@H](Cc1ccc(O)cc1)NC(C)=O)[C@@H](C)O)C(=O)N[C@@H](Cc1c[nH]c2ccccc12)C(N)=O) [des(1)-Ac-[D-Tyr2,D-Trp3,Thr5,Phe(2F)6,AzaGly7,Arg(Me)9,Trp10]MS10]
3 | 1 | Ac-[dY][dW]NT[Phe(3-F)][azaGly]L[Arg(Me)]W-NH2 (SMILES CNC(=N)NCCC[C@H](NC(=O)[C@H](CC(C)C)NC(=O)NNC(=O)[C@H](Cc1cccc(F)c1)NC(=O)[C@@H](NC(=O)[C@H](CC(N)=O)NC(=O)[C@@H](Cc1c[nH]c2ccccc12)NC(=O)[C@@H](Cc1ccc(O)cc1)NC(C)=O)[C@@H](C)O)C(=O)N[C@@H](Cc1c[nH]c2ccccc12)C(N)=O) [des(1)-Ac-[D-Tyr2,D-Trp3,Thr5,Phe(3F)6,AzaGly7,Arg(Me)9,Trp10]MS10]
4 | 3.5 | Ac-[dY]ENT[Phe(2-F)][azaGly]L[Arg(Me)]W-NH2 (SMILES CNC(=N)NCCC[C@H](NC(=O)[C@H](CC(C)C)NC(=O)NNC(=O)[C@H](Cc1ccccc1F)NC(=O)[C@@H](NC(=O)[C@H](CC(N)=O)NC(=O)[C@H](CCC(=O)O)NC(=O)[C@@H](Cc1ccc(O)cc1)NC(C)=O)[C@@H](C)O)C(=O)N[C@@H](Cc1c[nH]c2ccccc12)C(N)=O) [des(1)-Ac-[D-Tyr2,Glu3,Thr5,Phe(2F)6,AzaGly7,Arg(Me)9,Trp10]MS10]
5 | 2.4 | Ac-[dY]KNT[Phe(3-F)][azaGly]L[Arg(Me)]W-NH2 (SMILES CNC(=N)NCCC[C@H](NC(=O)[C@H](CC(C)C)NC(=O)NNC(=O)[C@H](Cc1cccc(F)c1)NC(=O)[C@@H](NC(=O)[C@H](CC(N)=O)NC(=O)[C@H](CCCCN)NC(=O)[C@@H](Cc1ccc(O)cc1)NC(C)=O)[C@@H](C)O)C(=O)N[C@@H](Cc1c[nH]c2ccccc12)C(N)=O) [des(1)-Ac-[D-Tyr2,Lys3,Thr5,Phe(3F)6,AzaGly7,Arg(Me)9,Trp10]MS10]
6 | 7.2 | Decanoyl-NTF[azaGly]L[Arg(Me)]W-NH2 (SMILES CCCCCCCCCC(=O)N[C@@H](CC(N)=O)C(=O)N[C@H](C(=O)N[C@@H](Cc1ccccc1)C(=O)NNC(=O)N[C@@H](CC(C)C)C(=O)N[C@@H](CCCNC(=N)NC)C(=O)N[C@@H](Cc1c[nH]c2ccccc12)C(N)=O)[C@@H](C)O) [des(1-3)-Decanoyl-[Thr5,AzaGly7,Arg(Me)9,Trp10]MS10]
7 | 0.4 | Ac-[dY][dW]NT[Phe(4-Cl)][azaGly]L[Arg(Me)]W-NH2 (SMILES CNC(=N)NCCC[C@H](NC(=O)[C@H](CC(C)C)NC(=O)NNC(=O)[C@H](Cc1ccc(Cl)cc1)NC(=O)[C@@H](NC(=O)[C@H](CC(N)=O)NC(=O)[C@@H](Cc1c[nH]c2ccccc12)NC(=O)[C@@H](Cc1ccc(O)cc1)NC(C)=O)[C@@H](C)O)C(=O)N[C@@H](Cc1c[nH]c2ccccc12)C(N)=O) [des(1)-Ac-[D-Tyr2,D-Trp3,Thr5,Phe(4Cl)6,AzaGly7,Arg(Me)9,Trp10]MS10]
